Experimental data from patent publication US20210032291A1, “Compstatin Analogs With Improved Pharmacokinetic Properties” (The Trustees of the University of Pennsylvania, priority 2011, published 2021).

The substances below were run against C3b (biotinylated, captured site-specifically on a streptavidin chip) (UniProt P01024) (assay: SPR (Biacore 3000), single-cycle kinetics, biotinylated C3b on streptavidin chip, peptide as analyte, 1:1 Langmuir fit).

Row | Substance | koff [s⁻¹] | kon [M⁻¹ s⁻¹] | Kd [nM]
1 | Peptide 9: Tyr(Me)-Ile-[Cys-Val-Trp(Me)-Gln-Asp-Trp-Sar-Ala-His-Arg-Cys]-mIle-NH2 | 0.0026 | 2.3e+06 | –
2 | Peptide 15: D-Phe-Ile-[Cys-Val-Trp(Me)-Gln-Asp-Trp-Sar-Ala-His-Arg-Cys]-mIle-NH2 | 0.0026 | 2.3e+06 | 1.1
3 | Peptide 16: D-Trp-Ile-[Cys-Val-Trp(Me)-Gln-Asp-Trp-Sar-Ala-His-Arg-Cys]-mIle-NH2 | 0.0024 | 2e+06 | 1.2
4 | Peptide 17: D-Cha-Ile-[Cys-Val-Trp(Me)-Gln-Asp-Trp-Sar-Ala-His-Arg-Cys]-mIle-NH2 | 0.0027 | 1.8e+06 | 1.5
5 | Peptide 18: D-Ala-Ile-[Cys-Val-Trp(Me)-Gln-Asp-Trp-Sar-Ala-His-Arg-Cys]-mIle-NH2 | 0.0034 | 1.4e+06 | 2.5
